Experimental findings from the supplement of paper PMC12042874 are described below.

± gives the uncertainty stated by the source.

This data set in a line: amyloid nucleation score (Sup35N fusion, yeast selection) (log enrichment); library NNK2; higher = more nucleation; inactive = no reads after selection. An outline of the steps:
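Nucleation score: DiMSum log enrichment of output over input reads, centred on the mode score of non-aggregating sequences. Only sequences with at least 100 input reads were kept. Reads came from Illumina sequencing of plasmid inserts before and after 7 days of growth at 30°C without adenine and uracil, in psi-negative yeast expressing Sup35N fused to peptides of 20 random codons after 24 hours of induction with 100 μM copper sulfate.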
With TISWFLETYVRSLFPRVGRG, the amyloid nucleation score was -0.035 ± 0.33.

Substance WHIFRNYAFIRVSM displayed an amyloid nucleation score of 0.036 ± 0.46.

Regarding RPNAVVFLTDNNVRRSDCWV, the amyloid nucleation score is -0.639 ± 0.28.

TYVLAIGLFWRYPF had an amyloid nucleation score of 3.22 ± 0.083.

As for TLGTIPIWTEIRPEYNSPLM, the amyloid nucleation score stood at 0.371 ± 0.51.

In the case of LVNMGSGPALYLYPLSIMVK, the amyloid nucleation score was -1.42 ± 1.1.

RPGMARVFNAA returned an amyloid nucleation score of 0.673 ± 0.36.

Regarding PFGKPVYLIFPPGMLVIFRA, the amyloid nucleation score is -0.603 ± 1.1.

LLGAGLSITMWDGPQL yielded an amyloid nucleation score of 0.654 ± 0.23.

LIGDSLSVVRNRNFPPARGK gave an amyloid nucleation score of -0.237 ± 1.

FYFLLG: the amyloid nucleation score came out at 0.587 ± 0.32.

Take FTWVYMHNIIFLLGSRLYIK: the amyloid nucleation score result is “inactive”.

For the substance YGPLNFDTSP, the amyloid nucleation score came out at 0.74 ± 0.16.

TRLPEMGLMDLITRSCYNRD: the amyloid nucleation score is -1.35 ± 0.75.

LWSSKYYKPPYWDNVVCSII: the amyloid nucleation score is -0.699 ± 1.

Substance GHRNTDRSRREDRTKW came in with an amyloid nucleation score of 4.82 ± 0.05.

Consider VMWDRRHFMAVSSDLEDKTR, for which the amyloid nucleation score is 0.438 ± 0.16.

The substance DSGFGSW registered an amyloid nucleation score of -0.807 ± 0.74.

Substance RTIQMVTSQSLPCFC had an amyloid nucleation score of 6.196 ± 0.042.

In turn, GMSITPWHWFGPCISFPDIN registered an amyloid nucleation score of -0.55 ± 0.53.

HPRTPGLVIEDKKNLFLVWR came in with an amyloid nucleation score of 5.22 ± 0.057.

YVYSVYNFLRVLICAGTG gave an amyloid nucleation score of 6.185 ± 0.037.

In turn, ESIVDWSYCFLTTFMSPRWA returned an amyloid nucleation score of 0.193 ± 0.65.

Consider NRHRWLYLRMRLYRYLEGVR, for which the amyloid nucleation score turned out to be 1.18 ± 0.47.

As for TFNYHVTYFLGHFFSTYGRF, the amyloid nucleation score was 3.49 ± 0.064.

LGFWL displayed an amyloid nucleation score of -1.31 ± 0.41.

The substance EEKEVDVEVGRETHMSARDN yielded an amyloid nucleation score of 0.563 ± 0.15.

Substance SDWII had an amyloid nucleation score of -0.063 ± 0.56.

With VVWEYIRYRCCTYDAVYTRS, the amyloid nucleation score turned out to be 0.522 ± 0.74.

As for NVRFLMMI, the amyloid nucleation score result is “inactive”.

SLVSFFVIKRSYFSTRLCTG displayed an amyloid nucleation score of -0.399 ± 0.61.

Take CLSGLLIWAHHSLKLDVLIG: the amyloid nucleation score came to 0.366 ± 0.64.

In turn, IVYFGQVIIFMVMSNSVCSL gave an amyloid nucleation score of -1.38 ± 1.

In turn, DMSFQDIIMP gave an amyloid nucleation score of -0.931 ± 0.54.

As for CSLFYRSS, the amyloid nucleation score stood at 4.06 ± 0.056.

Turning to YRLMLMS, the amyloid nucleation score was determined as 0.43 ± 0.42.

As for KLGWTRLTPNVAHFHLIVGL, the amyloid nucleation score turned out to be 0.583 ± 0.4.

Turning to YLIKMTCVGIMFSV, the amyloid nucleation score came to 6.592 ± 0.04.

As for VTGNTSRLISRPGANPNCMG, the amyloid nucleation score was -0.03 ± 0.56.

With LSYRHNGPHPGGYNCTGSRV, the amyloid nucleation score result was “inactive”.

GPRSPAA showed an amyloid nucleation score of 0.613 ± 0.34.

Turning to ISWTPSGAIVVS, the amyloid nucleation score result was “inactive”.

Regarding GYRVDLIILKFDLWYEY, the amyloid nucleation score result was “inactive”.

For PFRGYFGVLSYAVFGEAGPV, the amyloid nucleation score is 4.4 ± 0.067.

Substance MIAVV registered an amyloid nucleation score of 0.861 ± 0.2.

Consider LGIKRNQI, for which the amyloid nucleation score is -0.812 ± 0.45.

In turn, IWSQW yielded an amyloid nucleation score of -0.134 ± 1.1.

For RNEQMSPCITWVNYPDYLRT, the amyloid nucleation score worked out at 0.909 ± 0.6.

YYMVSP gave an amyloid nucleation score of -0.093 ± 0.33.

RVPSSHF had an amyloid nucleation score of 1 ± 0.47.

For the substance SCLMIIPFVFMFEHYTFEEG, the amyloid nucleation score turned out to be 7.71 ± 0.082.

For the substance HATLNPSSLSATSSNPACRL, the amyloid nucleation score is 0.171 ± 0.31.

Regarding VNGHLNFAS, the amyloid nucleation score is 0.712 ± 0.56.

VTAAVNCFVNKAQLCTCLFM showed an amyloid nucleation score of 9.097 ± 0.052.

SNRHSVRKAAWIWGRDFLRA showed an amyloid nucleation score of 0.346 ± 0.38.

For the substance LKRGYSFMRCLGVWRFQEPD, the amyloid nucleation score was -0.158 ± 0.25.

Take IHWNKIMRFTFKYGILLYPS: the amyloid nucleation score was -0.525 ± 1.1.

For the substance VQGSEKYGVVLFEY, the amyloid nucleation score stood at 5.83 ± 0.094.

For WCGARLKSDLCILK, the amyloid nucleation score was -0.494 ± 0.31.
